Test results: patent US20170218075A1 (HONG KONG UNIVERSITY OF SCIENCE AND TECHNOLOGY, published 2017)

What was measured:
[1] = target: T1, extracellular domain of mouse EphB2 recombinant protein (mouse, UniProt P54763 19-543); assay: competitive ELISA: mouse EphB2 extracellular domain coated, incubated with IgG1 m105, then biotinylated mouse ephrin-B2 Fc; streptavidin-biotin detection, % of inhibition
T1 construct: extracellular domain; also called EphB2 receptor
T1 sequence (looked up): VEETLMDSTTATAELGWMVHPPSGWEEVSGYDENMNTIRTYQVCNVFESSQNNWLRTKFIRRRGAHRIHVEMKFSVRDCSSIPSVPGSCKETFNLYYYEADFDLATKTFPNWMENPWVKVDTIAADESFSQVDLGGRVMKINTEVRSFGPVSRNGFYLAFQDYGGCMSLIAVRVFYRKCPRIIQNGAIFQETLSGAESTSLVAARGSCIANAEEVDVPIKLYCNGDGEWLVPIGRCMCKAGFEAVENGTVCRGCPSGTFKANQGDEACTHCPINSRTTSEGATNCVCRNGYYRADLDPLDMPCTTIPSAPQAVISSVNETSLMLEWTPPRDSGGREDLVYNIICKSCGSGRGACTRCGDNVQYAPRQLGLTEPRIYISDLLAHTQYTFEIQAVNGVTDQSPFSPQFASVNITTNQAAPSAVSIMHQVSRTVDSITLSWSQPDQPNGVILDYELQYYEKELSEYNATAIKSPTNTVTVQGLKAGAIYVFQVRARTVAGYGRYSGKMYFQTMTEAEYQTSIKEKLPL
Description: (§1) Extracellular domain of mouse EphA4 recombinant protein or extracellular domain of mouse EphB2 recombinant protein was first incubated with IgG1 m105, followed by incubating with different biotinylated recombinant mouse ephrin-A/ephrin-B Fc chimeric proteins. The effect of IgG1 m105 on the interaction of EphA4/EphB2 and ephrin-A/ephrin-B was then determined via the streptavidin-biotin detection method.
(§2) The EphA4 proteins were coated on a 96-well plate (Costar) at 50 ng/well in PBS overnight at 4° C. For phage ELISA, phages from each round of panning (polyclonal phage ELISA) or clones randomly picked from the infected TG 1 cells (monoclonal phage ELISA) were incubated with immobilized antigen. Bound phages were detected with anti-M13-HRP polyclonal Ab (Pharmacia, Piscataway, N.J.). For the soluble Fab binding assay, HRP-conjugated mouse anti-FLAG tag Ab (Sigma-Aldrich) was used to detect Fab binding. For the IgG1 binding assay, HRP-conjugated anti-Fab Ab (Sigma-Aldrich) was used for detection. For competitive ELISA assay, extracellular domain of mouse EphA4 recombinant protein or extracellular domain of mouse EphB2 recombinant protein was pre-coated on the ELISA plate and then incubated with different IgG1s for 1 hr at room temperature. […] The interaction of EphA4/EphB2 and ephrin-A/ephrin-B was determined via the streptavidin-biotin detection method.

[2] = target: EphA4 in cultured hippocampal neurons (rat, UniProt D3ZZK3 20-986); assay: cell-based or functional assay
[3] = target: T2, extracellular domain of mouse EphA4 recombinant protein (mouse, UniProt Q03137 20-547); assay: competitive ELISA, mouse EphA4 ECD coated; competitor biotinylated ephrin-B2 Fc; ligand Ephrin-B2
T2 construct: also called mouse EphA4 extracellular domain
T2 sequence (Q03137 20-547 limits assumed): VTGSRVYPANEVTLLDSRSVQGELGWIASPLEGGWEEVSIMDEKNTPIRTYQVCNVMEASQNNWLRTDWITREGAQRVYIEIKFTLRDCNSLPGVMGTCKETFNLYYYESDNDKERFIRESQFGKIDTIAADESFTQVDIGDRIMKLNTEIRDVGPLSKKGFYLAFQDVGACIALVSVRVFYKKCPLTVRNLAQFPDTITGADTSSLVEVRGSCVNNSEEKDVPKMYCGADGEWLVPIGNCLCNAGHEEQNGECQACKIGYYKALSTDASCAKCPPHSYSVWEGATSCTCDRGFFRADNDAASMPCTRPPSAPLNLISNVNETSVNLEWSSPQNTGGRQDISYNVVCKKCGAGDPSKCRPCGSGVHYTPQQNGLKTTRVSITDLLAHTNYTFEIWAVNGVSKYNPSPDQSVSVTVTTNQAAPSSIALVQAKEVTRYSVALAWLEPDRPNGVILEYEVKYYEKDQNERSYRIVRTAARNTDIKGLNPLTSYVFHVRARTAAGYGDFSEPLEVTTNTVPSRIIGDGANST
Description: as §1, §2

[4] = target: T2, extracellular domain of mouse EphA4 …; assay: competitive ELISA, mouse EphA4 ECD coated; competitor biotinylated mouse ephrin-A5 Fc; ligand mEphrin-A5
Description: as §1, §2

[5] = target: T2, extracellular domain of mouse EphA4 …; assay: competitive ELISA, mouse EphA4 ECD coated; competitor biotinylated mouse ephrin-A1 Fc; ligand mEphrin-A1
Description: as §1, §2

[6] = target: T3, GST-human EphA4 ligand binding domain (LBD) (human, UniProt P54764 29-209); assay: isothermal titration calorimetry, 20 µM LBD protein and 1 µM antibody
T3 construct: also called EphA4 LBD; EphA4 LBD recombinant protein; not shown: glutathione S-transferase (GST) tag
T3 sequence (P54764 29-209): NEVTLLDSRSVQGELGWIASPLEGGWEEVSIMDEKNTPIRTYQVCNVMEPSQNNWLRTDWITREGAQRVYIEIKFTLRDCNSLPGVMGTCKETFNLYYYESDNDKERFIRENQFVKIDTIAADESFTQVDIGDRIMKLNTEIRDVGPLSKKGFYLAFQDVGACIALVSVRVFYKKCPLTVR
Description: FIG. 5. […] Isothermal titration calorimetry (ITC) experiments were carried out by incubating 20 μM Eph LBD protein in the cell with 1 μM antibodies.
To investigate the binding property of the IgG1s m101, m105, and m119 to EphA4, GST-human EphA4 ligand binding domain (LBD) was expressed and purified. The recognition of EphA4 LBD by the 3 IgG1s m101, m105, and m119 was determined by Western blot analysis. The EphA4 LBD protein was run on SDS-PAGE and they were immunoblotted with the 3 IgG1s (FIG. 4). The kinetics of the 3 IgG1s and EphA4 LBD interaction were further analyzed by conducting isothermal titration calorimetry (ITC) experiments. The heat generated by the interaction of EphA4 LBD recombinant protein with the IgG1s was measured with a sensitive calorimeter.

[7] = target: T4, human EphA4 fused with IgG1 Fc and Avi-tag (EphA4-Fc) (human, UniProt P54764 20-547); assay: ELISA, EphA4 coated, IgG1 detected with anti-Fab-HRP
T4 construct: also called human EphA4-Fc; not shown: human IgG1 Fc; Avi-tag
T4 sequence (P54764 20-547 limits assumed): as the sequence (Q03137 20-547 limits assumed) above, with A59P, S121N, G124V, Q250R, N251S, S270T, R378K, S406N counted along it
Description: (§3) FIG. 3. Binding of IgG1s m101, m105, and m119 to mouse and human EphA4 measured by ELISA. Serially diluted IgG1s were added to EphA4-coated wells. HRP-conjugated anti-Fab Ab was used for detection.
(§4) The EphA4 proteins were coated on a 96-well plate (Costar) at 50 ng/well in PBS overnight at 4° C. For phage ELISA, phages from each round of panning (polyclonal phage ELISA) or clones randomly picked from the infected TG 1 cells (monoclonal phage ELISA) were incubated with immobilized antigen. Bound phages were detected with anti-M13-HRP polyclonal Ab (Pharmacia, Piscataway, N.J.). For the soluble Fab binding assay, HRP-conjugated mouse anti-FLAG tag Ab (Sigma-Aldrich) was used to detect Fab binding. For the IgG1 binding assay, HRP-conjugated anti-Fab Ab (Sigma-Aldrich) was used for detection. For competitive ELISA assay, extracellular domain of mouse EphA4 recombinant protein or extracellular domain of mouse EphB2 recombinant protein was pre-coated on the ELISA plate and then incubated with different IgG1s for 1 hr at room temperature. After several washes with DPBS, the EphA4 or EphB2 proteins were then incubated with different biotinylated recombinant mouse ephrin-A/ephrin-B Fc chimera proteins for 1 hr at room temperature. The interaction of EphA4/EphB2 and ephrin-A/ephrin-B was determined via the streptavidin-biotin detection method.

[8] = target: T2, extracellular domain of mouse EphA4 …; assay: competitive ELISA: mouse EphA4 extracellular domain coated, incubated with IgG1 m105, then biotinylated mouse ephrin-B2 Fc; streptavidin-biotin detection, % of inhibition
Description: as §1, §2

[9] = target: T2, extracellular domain of mouse EphA4 …; assay: competitive ELISA, mouse EphA4 ECD coated; competitor biotinylated mouse ephrin-A1 Fc
Description: The interaction of EphA4 and ephrin-A that attenuated by the IgG1s was determined via the streptavidin-biotin detection method. IC50 of the 3 IgG1s were determined.
as §4

[10] = target: T4, human EphA4 fused with IgG1 Fc and …; assay: ELISA, EphA4 coated, Fab detected with anti-FLAG-HRP; human EphA4; Fab, not IgG1
Description: FIG. 2. Binding of IgG1s E1 (m101), E2, E5 (m105), and E19 (m119) to mouse and human EphA4 measured by ELISA. Serially diluted IgG1s were added to EphA4-coated wells. HRP-conjugated anti-FLAG Ab was used for detection.
as §4

[11] = target: T4, human EphA4 fused with IgG1 Fc and …; assay: ELISA, EphA4 coated, IgG1 detected with anti-Fab-HRP; human EphA4; IgG1 format
Description: as §3, §4

B1: IgG1 m105 (antibody, V domains shown)
VH: EVQLVQSGAEVKKPGSSVKVSCKASGGTFSSYAISWVRQAPGQGLEWMGGIIPIFGTANYAQKFQGRVTMTRDTSISTAYMELSRLRSDDTAVYYCARELLYCSSTSCGTHGFDIWGQGTMVTVSS
VL: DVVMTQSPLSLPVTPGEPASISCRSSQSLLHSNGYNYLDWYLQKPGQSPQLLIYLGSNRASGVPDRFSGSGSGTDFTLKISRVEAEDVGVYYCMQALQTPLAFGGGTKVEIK
notes: Fully human IgG1 made from Fab E5 (pDR12 vector); also called E5; 105L
Q: Does B1 bind [1]?
A: Result: no binding (tested: 1000 nM (Log [nM] = 3))

Q: What about the “IC50 of inhibition of ephrin-A1 mediated EphA4 clusters” value [2] of the same binder?
A: Its value is 4.16 µg/mL.

Q: What about the IC50 [3] of the same binder?
A: The IC50 was 1.81 nM.

Q: What about the IC50 [4] of the same binder?
A: Its IC50 is 22.7 nM.

Q: What about the IC50 [5] of the same binder?
A: Its IC50 is 0.34 nM.

Q: What about the Kd [6] of the same binder?
A: The Kd was roughly 8.6 nM.

Q: And the EC50 [7]?
A: Its EC50 is less than 1 nM.

Q: What about the IC50 [8] of the same binder?
A: Its IC50 is 0.78 nM.

Q: And the IC50 [9]?
A: Its IC50 is 0.35 nM.

B2: Fab E5 (m105) (Fab, V domains shown)
VH: EVQLVQSGAEVKKPGSSVKVSCKASGGTFSSYAISWVRQAPGQGLEWMGGIIPIFGTANYAQKFQGRVTMTRDTSISTAYMELSRLRSDDTAVYYCARELLYCSSTSCGTHGFDIWGQGTMVTVSS
VL: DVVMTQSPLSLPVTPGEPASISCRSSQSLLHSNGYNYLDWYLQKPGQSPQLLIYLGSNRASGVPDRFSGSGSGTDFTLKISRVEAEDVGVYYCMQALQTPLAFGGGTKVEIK
notes: Soluble Fab, detected with anti-FLAG antibody; also called clone E5; Fab m105
Q: How did the EC50 [10] turn out when B2 was run?
A: The EC50 was 2 nM.

B3: IgG1 m101 (antibody, V domains shown)
VH: QVQLQQSGAEVKKPGSSVKVSCKASGYTFTGYYMHWVRQAPGQGLEWMGGIIPIFGTANYAQKFQGRVTITADKSTSTAYMELSSLRSEDTAVYYCATAPMVCSSTSCYLRGFDYWGQGTLVTVSS
VL: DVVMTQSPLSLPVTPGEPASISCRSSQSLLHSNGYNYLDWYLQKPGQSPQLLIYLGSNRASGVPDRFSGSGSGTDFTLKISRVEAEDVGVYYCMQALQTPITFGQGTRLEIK
notes: Fully human IgG1 made from Fab E1 by re-cloning into the pDR12 vector; also called E1; IgG1 E1
Q: How did the EC50 [11] turn out when B3 was run?
A: Its EC50 is 1 nM.

Q: What about the Kd [6] of the same binder?
A: Its Kd is roughly 83 nM.

Q: And the IC50 [9]?
A: Its IC50 is 0.71 nM.

B4: Fab E1 (m101) (Fab, V domains shown)
VH: QVQLQQSGAEVKKPGSSVKVSCKASGYTFTGYYMHWVRQAPGQGLEWMGGIIPIFGTANYAQKFQGRVTITADKSTSTAYMELSSLRSEDTAVYYCATAPMVCSSTSCYLRGFDYWGQGTLVTVSS
VL: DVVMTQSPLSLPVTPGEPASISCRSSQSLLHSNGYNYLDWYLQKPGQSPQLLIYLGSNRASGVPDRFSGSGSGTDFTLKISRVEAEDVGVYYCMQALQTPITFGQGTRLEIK
notes: Soluble Fab from the phage library, detected with anti-FLAG antibody (FLAG tag); also called clone E1; Fab m101
Q: B4 was tested. Which EC50 [10] did it give?
A: The EC50 was 5 nM.
